From article PMC9292107

Biological target: caveolin-3 (Cav3) (mouse (endogenous in cardiomyocytes)) (UniProt P51637)
Assay: co-IP; endogenous proteins in extracts of mouse cardiomyocytes / heart (WT; for actin-Cav3 also SM22α KO); IgG as negative control; Western blot

Chain of UniProt P51637 (P51637 whole entry): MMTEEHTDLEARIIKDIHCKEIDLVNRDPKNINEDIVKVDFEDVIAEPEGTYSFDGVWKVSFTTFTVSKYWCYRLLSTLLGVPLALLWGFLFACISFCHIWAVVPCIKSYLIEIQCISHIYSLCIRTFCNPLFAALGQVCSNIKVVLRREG

reduction of the co-precipitate in SM22α KO against WT cardiomyocytes: 34%
Substance: α-actin (from UniProt P68033 1-377) (natural protein)
